From patent US20120201746A1

Target: Neonatal Fc receptor (FcRn) on CHO-FcRnGPI cells
Experiment: flow cytometry on CHO-FcRnGPI cells, pH 6.4

EC50: 50.4 nM
Substance: Control mAb (antibody)
